{
  "source": "paper PMC6373145",
  "binders": {"B1": {"name": "recombinant GST-tagged human occludin, Q16625 1-522 (natural protein)", "chain": "MSSRPLESPPPYRPDEFKPNHYAPSNDIYGGEMHVRPMLSQPAYSFYPEDEILHFYKWTSPPGVIRILSMLIIVMCIAIFACVASTLAWDRGYGTSLLGGSVGYPYGGSGFGSYGSGYGYGYGYGYGYGGYTDPRAAKGFMLAMAAFCFIAALVIFVTSVIRSEMSRTRRYYLSVIIVSAILGIMVFIATIVYIMGVNPTAQSSGSLYGSQIYALCNQFYTPAATGLYVDQYLYHYCVVDPQEAIAIVLGFMIIVAFALIIFFAVKTRRKMDRYDKSNILWDKEHIYDEQPPNVEEWVKNVSAGTQDVPSPPSDYVERVDSPMAYSSNGKVNDKRFYPESSYKSTPVPEVVQELPLTSPVDDFRQPRYSSGGNFETPSKRAPAKGRAGRSKRTEQDHYETDYTTGGESCDELEEDWIREYPPITSDQQRQLYKRNFDTGLQEYKSLQSELDEINKELSRLDKELDDYREESEEYMAAADEYNRLKQVKGSADYKSKKNHCKQLKSKLSHIKKMVGDYDRQKT"}},
  "target": "T1, recombinant GST-tagged human occludin (human), Q16625",
  "T1 chain": "B1 chain",
  "test": "SDS-PAGE and immunoblot; recombinant GST-occludin in 50 mM HEPES pH 7.4, 16 h at 37 °C, with or without purified HtrA; 12% SDS-PAGE, blots with α-occludin H-279 and α-GST",
  "settings": "remark: other sources report otherwise",
  "data": [
    {"binder": "B1", "values": [
      {"measurement": "stoichiometry N", "value": 2}
    ]}
  ]
}
